# Laboratory results taken from the supplement of paper PMC7125110.
# ± gives the standard error. For some assays here: Variants at the floor of the assay were thinned out.
# B1: glmS ribozyme (parent)
# chain: AUAAAAGCGCCAGAACUACAGAAAUGUAGUUGACGAGGAGGAGGUUUAUCGAAUUUUCGGCGGAUGCCUCCAAA
# How the values were obtained:
# Details in all cases: with glucosamine-6-phosphate
# glucosamine-6-phosphate [1] = variants of: B1; assay: kcat; higher = faster cleavage; RNA array
# In short: (§1)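 Tracking of barcoded ribozyme variants used a hybridised Cy3 probe at 37 °C, after in situ transcription by E. coli RNA polymerase on sequenced MiSeq chips. The flowed solution held 40 μM to 10 mM glucosamine-6-phosphate in HEPES/KCl/Mg(OAc)2 buffer, and imaging ran over ~14 h. kobs was taken from exponential decay fits of normalised per-tile medians, and kcat and KM from weighted Michaelis–Menten fits.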
# glucosamine-6-phosphate [2] = variants of: B1; assay: self-cleavage kobs at 160 uM GlcN6P; higher = faster cleavage; RNA array
# In short: as §1
# glucosamine-6-phosphate [3] = variants of: B1; assay: self-cleavage kobs at 2500 uM GlcN6P; higher = faster cleavage; RNA array
# In short: as §1
# glucosamine-6-phosphate [4] = variants of: B1; assay: self-cleavage kobs at 10000 uM GlcN6P; higher = faster cleavage; RNA array
# In short: as §1
# glucosamine-6-phosphate [5] = variants of: B1; assay: self-cleavage kobs at 40 uM GlcN6P; higher = faster cleavage; RNA array
# In short: as §1
# glucosamine-6-phosphate [6] = variants of: B1; assay: KM; higher = weaker cofactor use; RNA array
# In short: as §1
# glucosamine-6-phosphate [7] = variants of: B1; assay: self-cleavage kobs at 640 uM GlcN6P; higher = faster cleavage; RNA array
# In short: as §1
Variant,kcat (glucosamine-6-phosphate [1]) [s⁻¹],self-cleavage kobs at 160 uM GlcN6P (glucosamine-6-phosphate [2]) [s⁻¹],self-cleavage kobs at 2500 uM GlcN6P (glucosamine-6-phosphate [3]) [s⁻¹],self-cleavage kobs at 10000 uM GlcN6P (glucosamine-6-phosphate [4]) [s⁻¹],self-cleavage kobs at 40 uM GlcN6P (glucosamine-6-phosphate [5]) [s⁻¹],KM (glucosamine-6-phosphate [6]) [µM],self-cleavage kobs at 640 uM GlcN6P (glucosamine-6-phosphate [7]) [s⁻¹]
A36C,< 1e-05,< 1e-05,,,,,
A39G A42C,3.82e-05 ± 3.7e-06,,3e-05 ± 1.4e-05,3.4e-05 ± 8e-06,,,
A36G A53U,1.3e-05 ± 2.6e-06,< 1e-05,,,< 1e-05,,
A39C C67A,0.00061 ± 0.00015,5.89e-05 ± 7.1e-06,0.000714 ± 0.00014,0.000522 ± 5e-05,2.37e-05 ± 5.8e-06,1790 ± 670,0.000144 ± 1.2e-05
G37A G44U A53U,9.52e-05 ± 3e-05,,6.43e-05 ± 1.9e-05,7.31e-05 ± 2.3e-05,,,
C34A U45A G51U,0.000482 ± 0.00015,,0.000272 ± 0.0001,0.00041 ± 0.00016,,,0.000198 ± 5.3e-05
A36C A52U U56G U65A U69A,2.16e-05 ± 2.7e-06,,,,,,
G38U G59C U69G,4.16e-05 ± 1.3e-05,,,,,,
A33U U45A,0.000201 ± 3.4e-05,,7.97e-05 ± 1.2e-05,0.000137 ± 1.5e-05,< 1e-05,4400 ± 1700,
A39C U65G,0.00143 ± 8.9e-05,7.31e-05 ± 2e-05,0.000558 ± 9.7e-05,0.0011 ± 9.8e-05,,3200 ± 380,0.000243 ± 3.9e-05
A39C U65C,0.000473 ± 8.7e-05,,0.000311 ± 7.1e-05,0.000367 ± 6.1e-05,,2250 ± 770,0.000107 ± 2e-05
G37A U54C,0.00259 ± 0.00054,0.000124 ± 2.7e-05,0.00127 ± 0.00026,0.00192 ± 0.00042,4.82e-05 ± 1.6e-05,3190 ± 910,0.000375 ± 8.4e-05
A39C C71U,0.00106 ± 0.00018,9.02e-05 ± 1.2e-05,0.000738 ± 8.5e-05,0.000904 ± 7.4e-05,4.78e-05 ± 7.5e-06,1570 ± 470,0.000275 ± 3.1e-05
G38U G63A,< 1e-05,< 1e-05,,,< 1e-05,,
A36C C68A,1.33e-05 ± 2.1e-06,,,,,,
G38U A53C C70U,< 1e-05,,< 1e-05,,,,
C34G A52G,< 1e-05,,< 1e-05,,,,

Variant,kcat (glucosamine-6-phosphate [1]) [s⁻¹],self-cleavage kobs at 160 uM GlcN6P (glucosamine-6-phosphate [2]) [s⁻¹],self-cleavage kobs at 2500 uM GlcN6P (glucosamine-6-phosphate [3]) [s⁻¹],self-cleavage kobs at 10000 uM GlcN6P (glucosamine-6-phosphate [4]) [s⁻¹],self-cleavage kobs at 40 uM GlcN6P (glucosamine-6-phosphate [5]) [s⁻¹],KM (glucosamine-6-phosphate [6]) [µM],self-cleavage kobs at 640 uM GlcN6P (glucosamine-6-phosphate [7]) [s⁻¹]
G37C C67U,2.86e-05 ± 3.3e-06,,2.85e-05 ± 1e-05,,,,
G38U C61G,< 1e-05,< 1e-05,,,,,
G37A C67A,0.000407 ± 4.2e-05,,0.000258 ± 4e-05,0.000336 ± 4.8e-05,,1680 ± 370,0.000119 ± 2e-05
G37A C67U,0.000574 ± 0.0001,4.58e-05 ± 1.1e-05,0.00036 ± 4.6e-05,0.000449 ± 4.9e-05,,2310 ± 720,0.000109 ± 1.5e-05
G37A C67G,1.61e-05 ± 2e-06,,,,,,
A39G G41A,0.00311 ± 0.00078,8.83e-05 ± 2.3e-05,0.00153 ± 0.00033,0.00217 ± 0.0003,4.23e-05 ± 8.3e-06,3870 ± 1400,0.000475 ± 9.1e-05
A39G G41C,4.55e-05 ± 7.4e-06,,5.57e-05 ± 1.5e-05,3.84e-05 ± 1.2e-05,< 1e-05,,
A39C U45G,0.00234 ± 0.00083,0.000127 ± 1.4e-05,0.00114 ± 0.00018,0.00189 ± 0.00029,6.34e-05 ± 1.1e-05,2340 ± 1100,0.000759 ± 0.0001
G37C A64C,1.32e-05 ± 3.3e-06,,,< 1e-05,,,
C34U C58A,< 1e-05,,< 1e-05,,< 1e-05,,< 1e-05
C34U C58G,< 1e-05,,,< 1e-05,,,
A36U U49G,2.84e-05 ± 1.2e-05,,3.43e-05 ± 1.7e-05,,< 1e-05,,
A39G U45C,0.0102 ± 0.0019,,0.00381 ± 0.0011,0.00774 ± 0.0016,0.00012 ± 2.4e-05,3810 ± 980,0.00126 ± 0.00034
A39C A53U,0.00502 ± 0.0011,0.000227 ± 3.4e-05,0.00344 ± 0.00044,0.00367 ± 0.00039,7.74e-05 ± 7.6e-06,2730 ± 760,0.000952 ± 0.00013
A39C A53C,0.00121 ± 6.7e-05,7.25e-05 ± 1.1e-05,0.000595 ± 6.8e-05,0.000957 ± 0.0001,2.09e-05 ± 8.9e-06,2680 ± 240,0.000221 ± 2.6e-05
G37U U69G,4.56e-05 ± 1.6e-05,3.74e-05 ± 8.6e-06,,,,,6.88e-05 ± 1.5e-05
A39G C70A,0.000304 ± 4.8e-05,0.000136 ± 3.1e-05,0.000172 ± 7.3e-05,0.000303 ± 5e-05,6.17e-05 ± 1.2e-05,158 ± 60,0.000306 ± 4.3e-05
